From US20200157212A1 (Pfizer, published 2020)

T1: Terbium (Tb) labeled-SNAP tagged ROBO2 expressed on HEK293 cells (Homo sapiens (Human), UniProt Q9HCK4 22-1378, terbium label on the SNAP tag)
T1 construct: also called Tb-labeled ROBO2 cells; ROBO2 expressing cells; not shown: SNAP tag
T1 sequence: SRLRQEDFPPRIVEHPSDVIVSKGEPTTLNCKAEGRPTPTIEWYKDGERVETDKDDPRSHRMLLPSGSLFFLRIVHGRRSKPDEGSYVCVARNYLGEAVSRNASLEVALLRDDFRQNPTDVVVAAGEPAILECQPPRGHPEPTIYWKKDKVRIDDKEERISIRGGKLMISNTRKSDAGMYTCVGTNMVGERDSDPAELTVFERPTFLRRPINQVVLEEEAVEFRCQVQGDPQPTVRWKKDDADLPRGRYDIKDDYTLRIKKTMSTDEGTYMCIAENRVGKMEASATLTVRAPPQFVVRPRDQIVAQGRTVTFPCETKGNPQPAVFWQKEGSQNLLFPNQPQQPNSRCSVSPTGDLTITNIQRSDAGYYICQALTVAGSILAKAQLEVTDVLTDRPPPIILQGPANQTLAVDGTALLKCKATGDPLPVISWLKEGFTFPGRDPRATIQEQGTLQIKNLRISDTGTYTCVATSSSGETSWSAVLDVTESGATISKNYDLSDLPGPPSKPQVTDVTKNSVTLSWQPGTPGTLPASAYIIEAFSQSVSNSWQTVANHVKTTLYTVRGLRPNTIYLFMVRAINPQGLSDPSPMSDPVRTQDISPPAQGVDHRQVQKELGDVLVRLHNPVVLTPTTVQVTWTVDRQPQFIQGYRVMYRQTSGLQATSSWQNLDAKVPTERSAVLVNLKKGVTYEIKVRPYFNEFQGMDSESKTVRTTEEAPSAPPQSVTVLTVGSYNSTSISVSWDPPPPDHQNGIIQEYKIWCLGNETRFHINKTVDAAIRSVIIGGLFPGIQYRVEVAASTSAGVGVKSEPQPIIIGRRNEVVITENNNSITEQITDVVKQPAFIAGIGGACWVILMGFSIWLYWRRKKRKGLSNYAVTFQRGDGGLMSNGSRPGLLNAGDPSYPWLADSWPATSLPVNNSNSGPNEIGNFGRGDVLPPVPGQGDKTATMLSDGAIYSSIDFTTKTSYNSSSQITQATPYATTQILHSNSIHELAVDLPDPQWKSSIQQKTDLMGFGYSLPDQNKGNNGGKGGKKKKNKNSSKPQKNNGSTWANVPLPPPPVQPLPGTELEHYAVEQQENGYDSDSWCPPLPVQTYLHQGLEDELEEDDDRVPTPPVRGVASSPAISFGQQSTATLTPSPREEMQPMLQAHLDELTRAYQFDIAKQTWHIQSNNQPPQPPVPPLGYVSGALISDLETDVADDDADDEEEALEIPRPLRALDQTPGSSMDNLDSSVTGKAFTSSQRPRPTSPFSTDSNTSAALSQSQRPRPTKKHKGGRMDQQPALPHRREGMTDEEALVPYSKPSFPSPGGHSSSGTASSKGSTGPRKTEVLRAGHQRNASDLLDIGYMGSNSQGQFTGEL


How the values were obtained:
[1] = target: T1, Terbium (Tb) labeled-SNAP tagged ROBO2 …; assay: HTRF competition, competitor d2-SLIT2-N, ROBO2 HEK293 cells
Method: (§1) Antibodies generated as a result of the affinity maturation campaign were screened by numerous assays for neutralization of SLIT2-N binding, selective binding to ROBO2 over ROBO1, and inhibition of SLIT2-N functional activity (see Table 2). A ROBO2-SLIT2-N homogenous time resolved fluorescence (HTRF) assay was used to identify antibodies that were capable of blocking SLIT2-N binding to ROBO2. In this assay, terbium (Tb) labeled-SNAP tagged ROBO2 expressing HEK293 cells were incubated with 5 nM d2-labeled SLIT-2N in the presence of 1 nM anti-ROBO2 antibodies for 1 hour. After incubation, fluorescence at 665 nm and 620 nm was measured on an Envision multilabel plate reader. […] Maximal signal was defined as the HTRF ratio of Tb-labeled ROBO2 cells with d2-labeled SLIT2-N in the absence of antibody, the minimum signal was defined as the HTRF ratio of Tb-labeled ROBO2 expressing HEK293 cells only. One nanomolar (nM) parental antibody, 93H2, was unable to block the HTRF assay, therefore this concentration was selected to identify clones with a higher affinity than 93H2 (Table 2, HTRF Ratio column). […] Antibodies derived from chain (Abcs series) or CDR shuffling (CTIR-2 series) were evaluated in 11-point, 5-fold dilution series with a top concentration of 1500 nM (Table 2 HTRF IC₅₀).

[2] = target: T1, Terbium (Tb) labeled-SNAP tagged ROBO2 …; assay: HTRF, 5 nM d2-SLIT2-N on Tb-SNAP-ROBO2 HEK293 cells, 1 nM antibody
Method: as §1, with “In” for “Antibodies generated as a result of the affinity maturation campaign were screened by numerous assays for neutralization of SLIT2-N binding, selective binding to ROBO2 over ROBO1, and inhibition of SLIT2-N functional activity (see Table 2). A ROBO2-SLIT2-N homogenous time resolved fluorescence (HTRF) assay was used to identify antibodies that were capable of blocking SLIT2-N binding to ROBO2. In”
HTRF assays were run with 5 nM d2-labeled SLIT2-N and antibodies were added at 1 nM. […] Antibodies derived from chain (Abcs series) or CDR shuffling (CTIR-2 series) were evaluated in 11-point, 5-fold dilution series with a top concentration of 1500 nM, N.T. = not tested; ^cFold selectivity was calculated as Geometric Mean Fluorescent Intensity (Geo MFI) of ROBO2/Geo MFI of ROBO1 binding.

Binder	IC50 [1] [nM]	HTRF Ratio [2]
CTIR2-1 (antibody, human IgG1, kappa, V domains shown, CDR-shuffled IgG) VH: EVQLVQSGAEVKKPGASVKVSCKASGYTFTGYYMHWVRQAPGQGLEWMGWINPRSGATNFPQKFQGRVTMTRDTSITTAYMDLSRLRSDDTAVYYCARESGDDAFDIWGQGTMVTVSS VL: DIVMTQSPSSLSASVGDRVTITCRASQSISSYLNWYQQKPGKAPKLLIYAASSLQYGVPSRFSGSGSGTDFTLTISSLQPEDFATYYCQQSLELGFGGGTKVEIKR	0.159	4540
CTIR2-5 (antibody, human IgG1, kappa, V domains shown, CDR-shuffled IgG) VH: EVQLVQSGAEVKKPGASVKVSCKASGYTFTGYYMHWVRQAPGQGLEWMGWINPKSGATNFPQKFQGRVTMTRDTSITTAYMDLSRLRSDDTAVYYCARESGDDAFDIWGQGTMVTVSS VL: DIVMTQSPSSLSASVGDRVTITCRASQKISSYLNWYQQKPGKAPKLLIYAASSLQSGVPSRFSGSGSGTDFTLTISSLQPEDFATYYCQQSLELGFGGGTKVEIKR	0.165	5180
CTIR2-3 (antibody, human IgG1, kappa, V domains shown, CDR-shuffled IgG) VH: EVQLVQSGAEVKKPGASVKVSCKASGYTFTGYYMHWVRQAPGQGLEWMGWINPRSGATNFPQKFQGRVTMTRDTSITTAYMDLSRLRSDDTAVYYCARESGDDAFDIWGQGTMVTVSS VL: DIVMTQSPSSLSASVGDRVTITCRASQSISSYLNWYQQKPGKAPKLLIYAASSLQYGVPSRFSGSGSGTDFTLTISSLQPEDFATYYCQQSVGLFFGGGTKVEIKR	0.154	4050
CTIR2-2 (antibody, human IgG1, kappa, V domains shown, CDR-shuffled IgG) VH: EVQLVQSGAEVKKPGASVKVSCKASGYTFTGYYMHWVRQAPGQGLEWMGWINPRSGATNFPQKFQGRVTMTRDTSITTAYMDLSRLRSDDTAVYYCARESGDDAFDIWGQGTMVTVSS VL: DIVMTQSPSSLSASVGDRVTITCRASQSISSYLNWYQQKPGKAPKLLIYAASSLQYGVPSRFSGSGSGTDFTLTISSLQPEDFATYYCQQSVGLSFGGGTKVEIKR	0.109	4330
CTIR2-4 (antibody, human IgG1, kappa, V domains shown, CDR-shuffled IgG) VH: EVQLVQSGAEVKKPGASVKVSCKASGYTFTGYYMHWVRQAPGQGLEWMGWINPKSGATNFPQKFQGRVTMTRDTSITTAYMDLSRLRSDDTAVYYCARESGDDAFDIWGQGTMVTVSS VL: DIVMTQSPSSLSASVGDRVTITCRASQKISSYLNWYQQKPGKAPKLLIYAASSLQYGVPSRFSGSGSGTDFTLTISSLQPEDFATYYCQQSYSTSFGGGTKVEIKR	0.38	6170
CTIR2-7 (antibody, human IgG1, kappa, V domains shown, CDR-shuffled IgG) VH: EVQLVQSGAEVKKPGASVKVSCKASGYTFTGYYMHWVRQAPGQGLEWMGWINPKSGATNFPQKFQGRVTMTRDTSITTAYMDLSRLRSDDTAVYYCARESGDDAFDIWGQGTMVTVSS VL: DIVMTQSPSSLSASVGDRVTITCRASQKISSYLNWYQQKPGKAPKLLIYAASSLQYGVPSRFSGSGSGTDFTLTISSLQPEDFATYYCQQSLELGFGGGTKVEIKR	0.136	3670

Other lines, results leading:

IC50 [1] [nM]	HTRF Ratio [2]	Binder
0.108	3860	CTIR2-8 (antibody, human IgG1, kappa, V domains shown, CDR-shuffled IgG) VH: EVQLVQSGAEVKKPGASVKVSCKASGYTFTGYYMHWVRQAPGQGLEWMGWINPKSGATNFPQKFQGRVTMTRDTSITTAYMDLSRLRSDDTAVYYCARESGDDAFDIWGQGTMVTVSS VL: DIVMTQSPSSLSASVGDRVTITCRASQKISSYLNWYQQKPGKAPKLLIYAASSLQYGVPSRFSGSGSGTDFTLTISSLQPEDFATYYCQQSVGLSFGGGTKVEIKR
0.182	4780	CTIR2-11 (antibody, human IgG1, kappa, V domains shown, CDR-shuffled IgG) VH: EVQLVQSGAEVKKPGASVKVSCKASGYTFRGYAMHWVRQAPGQGLEWMGWIDPRTGLTKFPQKFQGRVTMTRDTSITTAYMDLSRLRSDDTAVYYCARESGDDAFDIWGQGTMVTVSS VL: not shown
0.076	4580	CTIR2-12 (antibody, human IgG1, kappa, V domains shown, CDR-shuffled IgG) VH: EVQLVQSGAEVKKPGASVKVSCKASGYTFRGYAMHWVRQAPGQGLEWMGWIDPRTGLTKFPQKFQGRVTMTRDTSITTAYMDLSRLRSDDTAVYYCARESGDDAFDIWGQGTMVTVSS VL: DIVMTQSPSSLSASVGDRVTITCRASQKISSYLNWYQQKPGKAPKLLIYAASSLQSGVPSRFSGSGSGTDFTLTISSLQPEDFATYYCQQSYSTSFGGGTKVEIKR
